Test results taken from PMC9734150, “Allosteric rescue of catalytically impaired ATP phosphoribosyltransferase variants links protein dynamics to active-site electrostatic preorganisation” (Nature Communications, 2022).
Positions count from the first letter of the chain named. In names and notes the source's numbering stands.

T1: R56K-PaHisGS (Psychrobacter arcticus, UniProt Q4FQF7 1-231, R56K)
T1 sequence: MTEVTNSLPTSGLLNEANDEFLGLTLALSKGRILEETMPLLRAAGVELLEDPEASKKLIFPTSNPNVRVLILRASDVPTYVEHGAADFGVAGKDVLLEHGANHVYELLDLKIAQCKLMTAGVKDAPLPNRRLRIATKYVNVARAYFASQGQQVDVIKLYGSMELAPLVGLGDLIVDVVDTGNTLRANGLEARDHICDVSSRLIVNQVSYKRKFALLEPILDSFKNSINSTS

T2: R56A-PaHisGS (Psychrobacter arcticus, UniProt Q4FQF7 1-231, R56A)
T2 sequence: T1 sequence with K56A

T3: WT-PaHisGS (Psychrobacter arcticus ATP phosphoribosyltransferase catalytic subunit HisGS) (Psychrobacter arcticus, UniProt Q4FQF7 1-231)
T3 chain: T1 sequence with K56R

T4: R32A-PaHisGS (Psychrobacter arcticus, UniProt Q4FQF7 1-231, R32A)
T4 sequence: T1 sequence with R32A, K56R

B1: R56A-PaHisGS (enzyme, Psychrobacter arcticus)
chain: T1 sequence with K56A
notes: HisGS, Psychrobacter arcticus, with R56A; made from the WT-PaHisGS expression vector
B2: R32A-PaHisGS (enzyme, Psychrobacter arcticus)
chain: T1 sequence with R32A, K56R
notes: HisGS, Psychrobacter arcticus, with R32A; made from the WT-PaHisGS expression vector
B3: C115S-PaHisGS (enzyme, Psychrobacter arcticus)
chain: T1 sequence with K56R, C115S
notes: HisGS, Psychrobacter arcticus, with C115S; made from the WT-PaHisGS expression vector
B4: WT-PaHisGS (Psychrobacter arcticus ATP phosphoribosyltransferase catalytic subunit HisGS) (enzyme)
chain: T1 sequence with K56R
notes: HisGS, catalytic subunit of short-form ATP phosphoribosyltransferase, Psychrobacter arcticus
B5: R56A/K57A-PaHisGS (enzyme, Psychrobacter arcticus)
chain: T1 sequence with K56A, K57A
notes: HisGS, Psychrobacter arcticus, with R56A and K57A; made from the WT-PaHisGS expression vector
B6: PaHisZ (Psychrobacter arcticus ATP phosphoribosyltransferase regulatory protein HisZ) (natural protein)
chain: MLPDGVADVLFEDAHKQEVLRHQLTQQLITHGYQLVSPPMIEFTESLLSGASEDLKRQTFKIIDQLTGRLMGIRADITPQILRIDAHHGGDGIARYCYAGDVIHTLPSGLFGSRTPLQLGAEIFGCESIAADIELIDVLFSMINSLDMSAVLHVDLGHVTIFKRLAELAALSASDTEQLMQLYANKNLPELKQVCQVLPMGSDFYTLARFGHDIANLLGRLSENAQQDTKIVTAIDELQRLKAHLQVQWQCAVSIDVTELSGYHYHTGIVFNGYINSETQPLVRGGRFDGMKSNQLATNQPRQATGFSMDVSRLLAHTQLDAPFIVLIDYDAFNNLDSAQRQLLLQQVASLRQQGYRVTMPLTAEDMPVGLTHRLSLADNQWRLHAV
notes: HisZ, regulatory subunit of short-form ATP phosphoribosyltransferase, Psychrobacter arcticus; also called WT-PaHisZ

Assays:
[1] = molecular target: R56A-PaHisGS (Psychrobacter arcticus) (UniProt Q4FQF7)
[2] = molecular target: WT-PaHisGS (Psychrobacter arcticus ATP phosphoribosyltransferase catalytic subunit HisGS) (Psychrobacter arcticus) (UniProt Q4FQF7)
[3] = molecular target: WT-PaHisGS (Psychrobacter arcticus ATP phosphoribosyltransferase catalytic subunit HisGS) (Psychrobacter arcticus) (UniProt Q4FQF7); assay: enzyme activity titration (initial rate against HisZ concentration); apparent KD; fixed PaHisGS variant, HisZ (PaHisZ, His-tagged PaHisZ or AbHisZ) varied; initial velocities at 20 °C in 100 mM tricine, 100 mM KCl, 15 mM MgCl2, 4 mM DTT, pH 8.5, 5.6 mM ATP, 2 mM PRPP; fit to Eq. (3), or to Eq. (5) for R56A-PaHisGS with AbHisZ
[4] = molecular target: the molecule itself; assay: SEC; Superdex 200 10/300 GL, 4 °C, 20 mM HEPES pH 8.0; 1 mg/mL protein pre-incubated with 2 mM DTT
[5] = molecular target: AbHisZ (Acinetobacter baumannii HisZ); assay: enzyme activity titration (initial rate against HisZ concentration); apparent KD; fixed PaHisGS variant, HisZ (PaHisZ, His-tagged PaHisZ or AbHisZ) varied; initial velocities at 20 °C in 100 mM tricine, 100 mM KCl, 15 mM MgCl2, 4 mM DTT, pH 8.5, 5.6 mM ATP, 2 mM PRPP; fit to Eq. (3), or to …; conditions: other: enzyme activity titration (initial rate against HisZ concentration)
[6] = molecular target: B6; assay: enzyme activity titration (initial rate against HisZ concentration); apparent KD; fixed PaHisGS variant, HisZ (PaHisZ, His-tagged PaHisZ or AbHisZ) varied; initial velocities at 20 °C in 100 mM tricine, 100 mM KCl, 15 mM MgCl2, 4 mM DTT, pH 8.5, 5.6 mM ATP, 2 mM PRPP; fit to Eq. (3), or to Eq. (5) for R56A-PaHisGS with AbHisZ; conditions: both partners purified
[7] = molecular target: T1, R56K-PaHisGS; assay: cell-based or functional assay
[8] = molecular target: B4; assay: cell-based or functional assay
[9] = molecular target: B3; assay: cell-based or functional assay
[10] = molecular target: B2; assay: cell-based or functional assay
[11] = molecular target: B1; assay: cell-based or functional assay
[12] = molecular target: B5; assay: cell-based or functional assay
[13] = molecular target: T2, R56A-PaHisGS
[14] = molecular target: T3, WT-PaHisGS (Psychrobacter arcticus ATP …)
[15] = molecular target: T4, R32A-PaHisGS
[16] = molecular target: the molecule itself; assay: crystal structure; R56A-PaATPPRT (R56A-PaHisGS with PaHisZ) crystals soaked in PRPP and ATP; molecular replacement with PDB 6FU2

**Q.** What does the source list for “AbHisZ (Acinetobacter baumannii HisZ) (natural protein)”?
**A.** apparent kcat of the R56A-PaHisGS/AbHisZ hybrid complex [1]: 0.22 s⁻¹; apparent kcat of the WT-PaHisGS/AbHisZ hybrid complex [2]: 1.49 s⁻¹; Kd [3]: 9000 nM

**Q.** With B1 as the molecule, how does the “stoichiometry N” value [4] read?
**A.** The value was 2.

**Q.** And the “K0.5 (concentration of AbHisZ at the inflection point, Eq. 5)” value [5]?
**A.** The value was 8.1 ± 0.4 µM.

**Q.** What about the Kd [6] of the same molecule?
**A.** Its Kd is 4000 nM.

**Q.** What does the source list for B2?
**A.** stoichiometry N [4]: 2; Kd [6]: 490 nM

**Q.** B3 was tested. Which “stoichiometry N” value [4] did it give?
**A.** Its value is 2.

**Q.** And the Kd [6]?
**A.** The Kd was 1700 nM.

**Q.** How did the “stoichiometry N” value [4] turn out when B4 was run?
**A.** Its value is 2.

**Q.** And the Kd [6]?
**A.** The Kd was 440 nM.

**Q.** How did the “stoichiometry N” value [4] turn out when B5 was run?
**A.** Its value is 2.

**Q.** What about the Kd [6] of the same molecule?
**A.** Its Kd is 5000 nM.

**Q.** For B6, which “activation of the R56K-PaHisGS (6 µM) reaction rate by PaHisZ (20 µM)” value [7] is on record?
**A.** The value was roughly 11 fold.

**Q.** What about the “Activation by PaHisZ: ratio of kcat of PaATPPRT to v/ET of PaHisGS alone” value [8] of the same molecule?
**A.** Its value is 29 fold.

**Q.** And the “Activation by PaHisZ: ratio of kcat of PaATPPRT variant to v/ET of the PaHisGS mutant alone” value [9]?
**A.** Its value is 1860 fold.

**Q.** And the “Activation by PaHisZ: ratio of kcat of PaATPPRT variant to v/ET of the PaHisGS mutant alone” value [10]?
**A.** The value was 208 fold.

**Q.** What about the “Activation by PaHisZ: ratio of kcat of PaATPPRT variant to v/ET of the PaHisGS mutant alone” value [11] of the same molecule?
**A.** Its value is 250 fold.

**Q.** What about the “Activation by PaHisZ: ratio of kcat of PaATPPRT variant to v/ET of the PaHisGS mutant alone” value [12] of the same molecule?
**A.** The value was 521 fold.

**Q.** And the Kd [13]?
**A.** The Kd was 200 nM.

**Q.** What about the Kd [14] of the same molecule?
**A.** The Kd was 60 nM.

**Q.** And the Kd [15]?
**A.** Its Kd is 30 nM.

**Q.** Does B6 bind [16]?
**A.** Result: binds
